The source of these data is article PMC4490372, “Architecture of TFIIIC and its role in RNA polymerase III pre-initiation complex assembly” (Nature Communications, 2015).

Assay [1] deals with T1, τ131 (123–566) E472K (S. cerevisiae, UniProt P33339 123-566, E472K).
T1 sequence: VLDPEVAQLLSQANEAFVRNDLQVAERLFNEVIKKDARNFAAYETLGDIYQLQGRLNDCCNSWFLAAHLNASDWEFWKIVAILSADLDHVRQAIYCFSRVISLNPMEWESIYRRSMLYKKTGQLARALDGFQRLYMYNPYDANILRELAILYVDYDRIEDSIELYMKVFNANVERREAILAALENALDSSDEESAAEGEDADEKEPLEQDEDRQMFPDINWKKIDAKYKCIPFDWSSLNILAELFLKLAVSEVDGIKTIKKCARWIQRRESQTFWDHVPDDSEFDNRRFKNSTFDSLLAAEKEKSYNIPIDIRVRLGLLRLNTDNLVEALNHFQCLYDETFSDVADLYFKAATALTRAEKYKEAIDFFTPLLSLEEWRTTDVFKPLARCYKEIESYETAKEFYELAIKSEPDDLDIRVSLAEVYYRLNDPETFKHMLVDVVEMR
Briefly: ITC.

Assay [2] has as its target T2, τ131 (123–566) E498K (S. cerevisiae, UniProt P33339 123-566, E498K).
T2 sequence: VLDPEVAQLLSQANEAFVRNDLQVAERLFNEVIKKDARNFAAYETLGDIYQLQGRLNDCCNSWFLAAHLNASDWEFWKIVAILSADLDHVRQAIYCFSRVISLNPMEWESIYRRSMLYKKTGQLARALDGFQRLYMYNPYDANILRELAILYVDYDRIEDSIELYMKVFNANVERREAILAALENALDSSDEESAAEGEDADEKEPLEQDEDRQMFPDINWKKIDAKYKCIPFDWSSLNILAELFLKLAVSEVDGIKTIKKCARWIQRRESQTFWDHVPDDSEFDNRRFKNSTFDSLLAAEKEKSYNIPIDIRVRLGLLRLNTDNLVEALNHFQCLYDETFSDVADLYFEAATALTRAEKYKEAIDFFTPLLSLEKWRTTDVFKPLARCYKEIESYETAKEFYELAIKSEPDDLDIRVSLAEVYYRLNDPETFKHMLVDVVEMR
Briefly: ITC. For orientation: ITC needs no label: the signal is the heat of the interaction.

The target in assay [3] is T3, τ131 (123–566) E497K (S. cerevisiae, UniProt P33339 123-566, E497K).
T3 sequence: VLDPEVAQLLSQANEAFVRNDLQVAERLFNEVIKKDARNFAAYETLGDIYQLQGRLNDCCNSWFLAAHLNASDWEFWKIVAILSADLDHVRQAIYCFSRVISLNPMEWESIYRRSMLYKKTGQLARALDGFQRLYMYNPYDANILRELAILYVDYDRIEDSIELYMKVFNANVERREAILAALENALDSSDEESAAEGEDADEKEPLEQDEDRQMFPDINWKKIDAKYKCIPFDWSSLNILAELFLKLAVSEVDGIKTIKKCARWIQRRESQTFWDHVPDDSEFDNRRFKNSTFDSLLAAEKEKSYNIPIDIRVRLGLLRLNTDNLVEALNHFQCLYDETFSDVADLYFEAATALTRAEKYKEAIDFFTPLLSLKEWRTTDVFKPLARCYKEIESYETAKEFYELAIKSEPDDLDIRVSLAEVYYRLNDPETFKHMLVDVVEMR
Briefly: ITC.

Assay [4] deals with T4, τ131 (123–566) E472K (S. cerevisiae, UniProt P33339 123-566, E472K).
T4 construct: source: E. coli, purified by the same method as the wild type; not shown: His6, N-terminal, cleaved
T4 sequence (looked up): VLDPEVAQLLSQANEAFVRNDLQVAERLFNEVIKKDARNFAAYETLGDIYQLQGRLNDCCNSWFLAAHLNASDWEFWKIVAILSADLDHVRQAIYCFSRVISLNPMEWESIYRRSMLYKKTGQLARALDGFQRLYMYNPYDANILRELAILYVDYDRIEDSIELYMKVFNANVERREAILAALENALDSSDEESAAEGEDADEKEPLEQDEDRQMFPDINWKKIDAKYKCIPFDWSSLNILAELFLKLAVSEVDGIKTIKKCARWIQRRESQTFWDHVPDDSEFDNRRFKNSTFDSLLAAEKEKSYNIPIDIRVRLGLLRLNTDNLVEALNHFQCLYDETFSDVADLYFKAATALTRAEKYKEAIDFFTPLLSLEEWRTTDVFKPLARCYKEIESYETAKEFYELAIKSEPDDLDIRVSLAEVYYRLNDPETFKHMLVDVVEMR
Briefly: ITC; MicroCal ITC200; 15 μM τ138 in the cell, 150 μM τ131 in the syringe; 20 mM Tris pH 7.5, 150 mM NaCl, 2 mM β-mercaptoethanol; 25 °C. The note with it: both partners purified.

Assay [5] concerns the target T5, τ131 (123–566) E497K (S. cerevisiae, UniProt P33339 123-566, E497K).
T5 construct: source: E. coli, purified by the same method as the wild type; not shown: His6, N-terminal, cleaved
T5 sequence (looked up): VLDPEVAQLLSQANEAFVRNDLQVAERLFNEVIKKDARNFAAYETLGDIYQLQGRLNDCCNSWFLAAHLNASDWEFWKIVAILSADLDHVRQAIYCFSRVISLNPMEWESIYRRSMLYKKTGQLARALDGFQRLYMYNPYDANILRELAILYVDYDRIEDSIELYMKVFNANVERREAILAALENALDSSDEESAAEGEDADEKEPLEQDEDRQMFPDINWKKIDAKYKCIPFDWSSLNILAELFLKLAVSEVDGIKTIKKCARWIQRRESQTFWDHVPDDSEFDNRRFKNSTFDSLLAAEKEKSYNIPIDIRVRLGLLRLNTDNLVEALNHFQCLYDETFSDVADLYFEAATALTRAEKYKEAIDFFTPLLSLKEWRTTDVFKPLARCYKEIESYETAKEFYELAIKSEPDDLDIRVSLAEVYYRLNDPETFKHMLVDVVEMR
Described as above. The note with it: both partners purified.

Assay [6] concerns the target T6, τ131 (123–566) E498K (S. cerevisiae, UniProt P33339 123-566, E498K).
T6 construct: source: E. coli, purified by the same method as the wild type; not shown: His6, N-terminal, cleaved
T6 sequence (looked up): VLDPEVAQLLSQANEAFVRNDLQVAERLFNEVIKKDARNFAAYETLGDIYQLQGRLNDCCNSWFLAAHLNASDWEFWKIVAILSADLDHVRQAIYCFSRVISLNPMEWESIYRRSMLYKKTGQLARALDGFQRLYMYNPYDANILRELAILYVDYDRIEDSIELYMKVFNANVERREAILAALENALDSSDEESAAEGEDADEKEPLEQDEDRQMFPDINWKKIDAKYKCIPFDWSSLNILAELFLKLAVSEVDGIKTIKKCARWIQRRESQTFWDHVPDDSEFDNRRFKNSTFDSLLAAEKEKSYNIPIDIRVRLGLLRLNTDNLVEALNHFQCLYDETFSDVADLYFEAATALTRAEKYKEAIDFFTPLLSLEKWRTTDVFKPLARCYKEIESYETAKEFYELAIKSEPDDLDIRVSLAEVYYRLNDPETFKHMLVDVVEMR
The assay is described as above. Particulars: both partners purified.

Assay [7] concerns the target T7, τ131 (123–566), TPR array, wild type (S. cerevisiae, UniProt P33339 123-566).
T7 construct: also called τ131 TPR array; source: E. coli BL21 Star (DE3) pRARE, purified (Ni-NTA, TEV cleavage, S200 SEC); not shown: His6, N-terminal, cleaved
T7 sequence (looked up): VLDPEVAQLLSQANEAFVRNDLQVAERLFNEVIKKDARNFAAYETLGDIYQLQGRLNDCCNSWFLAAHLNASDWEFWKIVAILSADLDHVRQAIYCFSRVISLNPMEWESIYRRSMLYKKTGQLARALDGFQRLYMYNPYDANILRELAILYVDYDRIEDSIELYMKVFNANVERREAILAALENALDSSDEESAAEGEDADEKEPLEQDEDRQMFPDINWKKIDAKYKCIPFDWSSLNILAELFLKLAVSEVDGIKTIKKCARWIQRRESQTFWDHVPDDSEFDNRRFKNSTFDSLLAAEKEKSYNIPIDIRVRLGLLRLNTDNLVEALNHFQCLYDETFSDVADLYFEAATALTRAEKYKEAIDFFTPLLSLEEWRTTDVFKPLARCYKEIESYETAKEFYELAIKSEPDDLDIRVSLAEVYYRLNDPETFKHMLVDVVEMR
Described as above. The note with it: both partners purified.

B1: τ138 (641–693), τ131-Interaction Region (τIR) (domain or fragment, S. cerevisiae, UniProt P34111 641-693, looked up)
chain: SKKATFTDVIHDTEIYFFDQTEKNRFHRGKKSVERIRKFQNRQKNAKIKASDD
notes: The cloning and tag of this construct as used for ITC and SEC are not described; also called τ138 (τIR); unstructured region of τ138; source: purified; expression of this construct not described
On to B1, for which the Kd (as a rule, the equilibrium constant for the complex coming apart) in the assay with τ131 (123–566) E472K [1] was 833 nM; in the assay with τ131 (123–566) E498K [2], 833 nM; with τ131 (123–566) E497K [3], 89 nM; in assay [7] it was roughly 80 nM. In addition, the binding result with τ131 (123–566) E472K [4], with τ131 (123–566) E497K [5] and in the assay with τ131 (123–566) E498K [6] was “binds” throughout.

B2: τ138 construct with residues 682–693 removed (domain or fragment)
chain: SARSLRSLQRQRAILKVMNTIGGVAYLREQFYESVSKYMGSTTTLDKKTVRGDVDLMVESEKLGARTEPVSGRKIIFLPTVGEDAIQRYILKEKDSKKATFTDVIHDTEIYFFDQTEKNRFHRGKKSVERIRKFQN
B2 registered a Kd in assay [7] of roughly 2600 nM.
